For one test, the target named is human CD40 (human, UniProt P25942 21-193, limits assumed). Description: Octet. The procedure:
(§1) The binding affinity of anti-human CD40 antibodies to human and cynomolgus monkey CD40 was measured by Octet assay (Table 3), quantifying association rate (Kon), disassociation rate (Kdis), and equilibrium binding constant (KD). Cross-reactivity of anti-CD40 antibodies to related TNF receptor superfamily (TNFRSF) members was evaluated by expressing human TNFR1, TNFR2, TNFR10, or TNFR14 on HEK293 cells by transient transfection of expression vectors encoding these genes. Binding of indicated anti-human CD40 antibody to these transfected cells was determined by flow cytometry. […] Cross-reactivity of anti-CD40 antibodies to cynomolgus monkey and mouse CD40 was evaluated by expressing cynomolgus monkey or mouse CD40 on HEK293 cells by transient transfection of expression vectors encoding these genes. Binding of indicated anti-human CD40 antibody to cells overexpressing cynomolgus monkey and mouse CD40 was determined by flow cytometry.

For a further test, the target named is T1, cynomolgus monkey CD40 (cynomolgus monkey, UniProt P25942 21-193 (human entry), limits assumed).
T1 chain: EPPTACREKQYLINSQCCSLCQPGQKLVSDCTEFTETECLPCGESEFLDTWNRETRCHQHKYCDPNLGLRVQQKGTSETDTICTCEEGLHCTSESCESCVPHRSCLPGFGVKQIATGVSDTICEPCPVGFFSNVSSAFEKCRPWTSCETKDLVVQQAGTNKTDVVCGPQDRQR
Description: Octet. The procedure:
as §1

Test [1] concerns the target T2, human CD40 on cells (human, UniProt P25942 21-277). The test is described as follows: cell-based or functional assay.
The target in test [2] is T2, human CD40 on cells. Description: cell-based or functional assay. This is another data set of the same source.
Target sequence in this assay (P25942 21-277 limits assumed): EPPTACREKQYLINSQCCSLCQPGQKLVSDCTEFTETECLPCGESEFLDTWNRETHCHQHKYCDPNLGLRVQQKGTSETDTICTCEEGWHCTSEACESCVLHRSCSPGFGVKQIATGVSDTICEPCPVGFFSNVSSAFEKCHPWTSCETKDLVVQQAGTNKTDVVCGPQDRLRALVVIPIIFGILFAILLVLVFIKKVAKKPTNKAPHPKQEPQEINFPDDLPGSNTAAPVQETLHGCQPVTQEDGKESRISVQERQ
The next test addresses T3, mouse CD40 on cells (mouse, UniProt P27512 20-289).
T3 construct: whole, on cells; also called mouse CD40 on HEK293 cells; CD40 on mouse B cells
T3 sequence (looked up): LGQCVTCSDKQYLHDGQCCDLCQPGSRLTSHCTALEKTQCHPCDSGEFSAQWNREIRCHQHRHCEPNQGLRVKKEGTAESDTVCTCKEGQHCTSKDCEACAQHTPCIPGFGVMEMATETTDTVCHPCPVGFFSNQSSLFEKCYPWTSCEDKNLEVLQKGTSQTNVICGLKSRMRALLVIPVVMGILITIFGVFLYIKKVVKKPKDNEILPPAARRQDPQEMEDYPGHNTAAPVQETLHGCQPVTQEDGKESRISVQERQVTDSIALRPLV
Description: flow cytometry, HEK293 transfectants. Background: In flow cytometry, cells or beads pass a laser one at a time.

Another test concerns the target T4, human TNFR1 (human, UniProt P19438 30-455).
T4 construct: whole, on cells
T4 sequence (looked up): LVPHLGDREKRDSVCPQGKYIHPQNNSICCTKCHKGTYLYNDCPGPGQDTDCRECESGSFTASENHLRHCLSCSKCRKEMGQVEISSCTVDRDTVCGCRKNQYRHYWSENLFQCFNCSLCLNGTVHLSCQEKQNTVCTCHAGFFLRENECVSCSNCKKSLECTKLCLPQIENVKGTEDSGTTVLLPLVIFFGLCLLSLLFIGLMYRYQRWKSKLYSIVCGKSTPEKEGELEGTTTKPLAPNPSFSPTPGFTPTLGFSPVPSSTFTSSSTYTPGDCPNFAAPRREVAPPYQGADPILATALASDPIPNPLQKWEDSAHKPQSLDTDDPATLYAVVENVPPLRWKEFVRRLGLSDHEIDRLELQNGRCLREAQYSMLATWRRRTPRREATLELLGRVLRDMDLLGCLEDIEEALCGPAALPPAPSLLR
Description: flow cytometry, HEK293 transfectants. As for the experimental part:
as §1

A further test deals with T5, human TNFR2 (human, UniProt P20333 23-461).
T5 construct: whole, on cells
T5 sequence (looked up): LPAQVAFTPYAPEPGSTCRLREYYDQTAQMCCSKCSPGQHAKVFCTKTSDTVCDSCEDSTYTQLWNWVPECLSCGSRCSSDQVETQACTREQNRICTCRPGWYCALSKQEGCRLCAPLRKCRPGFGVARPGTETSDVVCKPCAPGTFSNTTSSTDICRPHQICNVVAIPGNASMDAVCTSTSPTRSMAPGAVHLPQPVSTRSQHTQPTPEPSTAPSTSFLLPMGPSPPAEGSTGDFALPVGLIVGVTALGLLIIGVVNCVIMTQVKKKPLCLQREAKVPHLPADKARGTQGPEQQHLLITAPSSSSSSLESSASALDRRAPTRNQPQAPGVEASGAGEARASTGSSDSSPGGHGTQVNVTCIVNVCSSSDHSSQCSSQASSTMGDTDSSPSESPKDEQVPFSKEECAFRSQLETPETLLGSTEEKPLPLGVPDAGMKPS
Description: flow cytometry, HEK293 transfectants. The procedure:
as §1

Another test concerns the target T6, human TNFR14 (human, UniProt Q92956 39-283).
T6 construct: whole, on cells
T6 sequence (looked up): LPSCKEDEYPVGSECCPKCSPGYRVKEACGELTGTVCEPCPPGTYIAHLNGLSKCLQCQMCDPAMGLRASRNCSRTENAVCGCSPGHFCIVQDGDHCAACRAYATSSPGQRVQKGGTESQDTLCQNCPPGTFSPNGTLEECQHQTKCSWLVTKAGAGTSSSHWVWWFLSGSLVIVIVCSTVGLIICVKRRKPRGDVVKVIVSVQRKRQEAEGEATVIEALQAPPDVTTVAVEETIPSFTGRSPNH
The test is described as follows: flow cytometry, HEK293 transfectants. The procedure:
as §1

For test [3], the target named is T2, human CD40 on cells. The test is described as follows: flow cytometry, labelled CD40L on CD40-293T cells, antibody at 5 ug/ml. The procedure:
(§2) Percent ligand binding inhibition was calculated as [(CD40L binding gMFI in the absence of anti-CD40)−(CD40L binding gMFI in the presence of anti-CD40)]/(CD40L binding gMFI in the absence of anti-CD40). gMFI: geometric mean fluorescent intensity. All anti-CD40 antibodies show minimal effects on the ability of CD40L to bind to the CD40 receptor (Table 7).
Target sequence in this assay (P25942 21-277 limits assumed): as the sequence (P25942 21-277 limits assumed) above

The target in test [4] is T2, human CD40 on cells. The test is described as follows: flow cytometry, labelled CD40L on CD40-293T cells, antibody at 20 ug/ml. The procedure: as §2
Target sequence in this assay (P25942 21-277 limits assumed): as the sequence (P25942 21-277 limits assumed) above
In test [5] the target is T2, human CD40 on cells. Description: flow cytometry, labelled CD40L on CD40-293T cells, antibody at 2.5 ug/ml. The procedure: as §2
Target sequence in this assay (P25942 21-277 limits assumed): as the sequence (P25942 21-277 limits assumed) above

Read-outs that look alike come from different tables or passages of the source.

What is called Kd is the concentration at which binding is half-saturated. The koff is a measure of how fast the partners let go of each other. The kon is the rate constant with which the complex forms.

Sequence of human CD40 (P25942 21-193 limits assumed): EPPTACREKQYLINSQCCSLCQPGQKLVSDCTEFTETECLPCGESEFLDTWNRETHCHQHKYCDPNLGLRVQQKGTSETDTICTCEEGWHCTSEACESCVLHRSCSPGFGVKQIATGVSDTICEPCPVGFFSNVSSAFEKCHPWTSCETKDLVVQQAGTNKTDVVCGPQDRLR

B1: 33H6 (antibody, IgG4, V domains shown)
VH: QVQLVQSGAEVKKPGASVKVSCKASGYTFPGYYMYWLRQAPGQGLEWMGWINPDSGDTNYAQKFQGRVTMTRDTSISTAFMELSRLRSDDTAVYYCAREKPRYFDSFYYYLMDVWGQGTTVTVSS
VL: DIQMTQSPSSLSASVGDRVTITCRAGQNISRHLNWYQQNPGKAPKVLIHPASSLPSGVPSRFSGSGSGTDFSLTISSLQPEDFGTYFCQQSYSTPPTFGGGTKVELKR
notes: also called 4883-1
For B1, the Kd amounted to 1.34 nM with human CD40 and 1.04 nM with cynomolgus monkey CD40. Besides, the values for the dissociation rate constant (koff) with human CD40 and with cynomolgus monkey CD40 were 0.00068 s⁻¹ and 0.000577 s⁻¹, respectively. Besides, the kon in the test with human CD40 amounted to 509000 M⁻¹ s⁻¹; in the test with cynomolgus monkey CD40 it was 556000 M⁻¹ s⁻¹. The “human B cell proliferation, no crosslinking, EC50” value with human CD40 on cells [1] and in the test with human CD40 on cells [2] was above 16.7 nM in each case. For the same molecule, the “human B cell proliferation, no crosslinking, Max Fold Change” value in the test with human CD40 on cells [1] is 1.21 fold. For the same molecule, the “human B cell proliferation, with protein G crosslinking, EC50” value in the test with human CD40 on cells [1] was 0.237 nM; with human CD40 on cells [2], 0.26 nM. In addition, the “human B cell proliferation, with protein G crosslinking, Max Fold Change” value with human CD40 on cells [1] was determined as 18.2 fold. In the test with human CD40 on cells [2], the “human B cell proliferation, no crosslinking, % Max Activity” value amounted to 6.5%. Also, the “human B cell proliferation, with protein G crosslinking, % Max Activity” value in the test with human CD40 on cells [2] was determined as 73.4%. Further, the binding result with mouse CD40 on cells, with human TNFR1, with human TNFR2 and in the test with human TNFR14 was “no binding” in each case. The “Ligand Binding Inhibition (%)” value with human CD40 on cells [3] is 4%; with human CD40 on cells [4] it was 7%; in the test with human CD40 on cells [5], -8%.

B2: 29H10 (antibody, V domains shown)
VH: QVQLVQSGAEVTKPGASVKVSCKASGYTFAGYYMHWVRQAPGQGLEWMGWINPHSGGTNYAQKFQDRVTMTRDTSINTAYMELSRLRSDDTAVYYCARERISMVRGVGHNWFAPWGQGTLVTVSS
VL: DIQMTQSPSSLSASVGDRVTITCRASQDISNNLAWFQQKPGKPPKSLMYAASSLHSGVPSTFSGSGSGTDFTFTISSLQPEDFATYYCQQYNSYPLTFGGGTKVEIRR
notes: also called 4877-1
On to B2, for which the Kd with human CD40 was found to be 0.41 nM; in the test with cynomolgus monkey CD40, 0.39 nM. For the same molecule, the koff with human CD40 was determined as 0.000164 s⁻¹; with cynomolgus monkey CD40 it was 0.000244 s⁻¹. In addition, the kon turned out to be 398000 M⁻¹ s⁻¹ with human CD40 and 612000 M⁻¹ s⁻¹ with cynomolgus monkey CD40. Moreover, the “human B cell proliferation, no crosslinking, EC50” value with human CD40 on cells [1] and in the test with human CD40 on cells [2] was above 16.7 nM each time. The “human B cell proliferation, no crosslinking, Max Fold Change” value with human CD40 on cells [1] stood at 1.35 fold. Also, the “human B cell proliferation, with protein G crosslinking, EC50” value in the test with human CD40 on cells [1] stood at 0.235 nM; in the test with human CD40 on cells [2], 0.37 nM. Besides, in the test with human CD40 on cells [1], the “human B cell proliferation, with protein G crosslinking, Max Fold Change” value is 18.2 fold. For the same molecule, in the test with human CD40 on cells [2], the “human B cell proliferation, no crosslinking, % Max Activity” value stood at 4.4%. Moreover, the “human B cell proliferation, with protein G crosslinking, % Max Activity” value with human CD40 on cells [2] was 65.9%. Moreover, the binding result with mouse CD40 on cells, with human TNFR1, in the test with human TNFR2 and in the test with human TNFR14 was “no binding” each time. Moreover, the results for the “Ligand Binding Inhibition (%)” value in the test with human CD40 on cells [3], with human CD40 on cells [4] and in the test with human CD40 on cells [5] were -8%, -7% and -11%, respectively.

B3: 36F3 (antibody, IgG4, V domains shown)
VH: QVQLQQSGPGLVKPSQTLSLTCAISGDSVSSSRTAWNWIRQSPSRGLEWLGRTYYRSKWYHDYSVSVKSRITIDPDTSKNQFSLQLNSVTPEDTAVYYCARGAAPFDYWGQGTLVTVSS
VL: EIVLTQSPGTLSLSPGERATLSCRASQSVSSNYLAWYQQKPGQAPRALIYAASNRAAGISDRFSGSGSGTDFTLTISRLEPEDFAVYFCQQYGSSPLTFGGGTKVEIKR
notes: also called 4891-1
In the test with human CD40, B3 gave a Kd of 6.87 nM, an off-rate constant (koff) of 0.000443 s⁻¹ and a kon of 64500 M⁻¹ s⁻¹. Moreover, in the test with cynomolgus monkey CD40, the Kd is 4.02 nM, the koff was 0.00021 s⁻¹ and the kon was found to be 52200 M⁻¹ s⁻¹. In the test with human CD40 on cells [1], the “human B cell proliferation, no crosslinking, EC50” value is above 16.7 nM; the “human B cell proliferation, no crosslinking, Max Fold Change” value is 1.83 fold; the “human B cell proliferation, with protein G crosslinking, EC50” value worked out at 0.558 nM; the “human B cell proliferation, with protein G crosslinking, Max Fold Change” value was 16.9 fold. Besides, in the test with human CD40 on cells [2], the “human B cell proliferation, no crosslinking, % Max Activity” value stood at 8.2%; the “human B cell proliferation, no crosslinking, EC50” value is above 16.7 nM; the “human B cell proliferation, with protein G crosslinking, % Max Activity” value was determined as 81.9%; the “human B cell proliferation, with protein G crosslinking, EC50” value came to 0.3 nM. In addition, the binding result in the test with mouse CD40 on cells is on record as “no binding”. Moreover, in the test with human TNFR1, the binding result is “no binding”. Also, in the test with human TNFR2, the binding result was “no binding”. Also, the binding result in the test with human TNFR14 was “no binding”. Also, the “Ligand Binding Inhibition (%)” value in the test with human CD40 on cells [3] was found to be 10%. For the same molecule, the “Ligand Binding Inhibition (%)” value with human CD40 on cells [4] is 1%. In the test with human CD40 on cells [5], the “Ligand Binding Inhibition (%)” value came to 1%.

The record behind these values is US20260109776A1 (Amgen, published 2026).
